In the nanobody polyreactivity screen of Harvey et al. (2022):

Assay: yeast display, Sf9 membrane polyspecificity reagent, FACS + sequencing; frameworks hold sequencing errors
In short: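 Synthetic nanobody libraries on Saccharomyces cerevisiae BJ5465 were galactose-induced for 36–48 hours, stained 1 hour at 4 °C with 10% biotinylated, detergent-solubilized Sf9 membrane reagent and enriched on streptavidin microbeads. FACS then separated cells into low and high (top ~1%) gates by anti-HA (expression) and streptavidin (reagent binding) fluorescence. Genes were colony-PCR amplified, MiSeq 2 × 250 sequenced and CDR-length filtered. A clone's polyreactivity label is that of its gate of origin.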
With “QVQLVESVGGLVQAGGSLRLSCAASGRTFWYYSMGWDREAPGKERELVAAITSGGSTNYADSVKGRFTISRDNAKNTVYLQIYSLKPEDTAVYYCDTDNPVFEYYYWGQGTQVTVSS” the “polyreactivity (PSR sort gate)” value was “low polyreactivity”.
For “QVQLVESVGGLVQAGGSLRLSCAASGRTFYGYAMGWYRKAPGKERELVAAISTGGGRTYYADSVKGRFTISRDNAKNTVYLQMNSLKPEDTAVYYCAARRAYPHYRVDYWGQGTQVTVSS”, the “polyreactivity (PSR sort gate)” value was “high polyreactivity”.
In the case of “QVQLVESVGGLVQAGGSLRLSCAASGRTLGKYAMGWYIQAPGKERELVAAIRWTGTSTYYADSVKGRFTISRDNAKNTVYLQMNSLKPEDTAVYYCAKGTVHSRPDFGRGWYRWDDYWGQGTQVTVSS”, the “polyreactivity (PSR sort gate)” value is reported as “high polyreactivity”.
In the case of “QVQLVESVGGLVQAGGSLRLSCAASGSIFDVNAMGWYRQAPGKERELVAAITSSGGSTYYADSVKGRFTISRDNAKNTVYLQMNSLKPEDTAVYYCAAYSLYTMYWGQGTQVTVSS”, the “polyreactivity (PSR sort gate)” value is reported as “low polyreactivity”.
In the case of “QVQLVESVGGLVQAGGSLRLSCAASGSIFFNYTMGWYRQAPGKERELVAAINSSGGRTNYADSVKGRFTISRDNAKNTVYLQMNSLKPEDTAVYYCAAVYYDVWYVYWGQGTQVTVSS”, the “polyreactivity (PSR sort gate)” value is reported as “low polyreactivity”.
For “QVQLVESVGGLVQAGGSLRLSCAASGSIFNRYAMGRYRQAPGKERELVAAISTHTGTTYYADSVKGRFTISRDNAKNTVYLQMNSLKPEDTAVYYCAKRSRYGYGKSYDYWGQGTQVTVSS”, the “polyreactivity (PSR sort gate)” value was “high polyreactivity”.
In the case of “QVQLVESVGGLVQAGGSLRLSCAASGSIFRSYAMGWYRQAPGKERELVAAISWSGASTYYADSVKGRFTISRDNAKNTVYLQMNSLKPEDTAVYYCAARPRYWRWYSGDYWGQGTQVTVSS”, the “polyreactivity (PSR sort gate)” value is reported as “high polyreactivity”.
For “QVQLVESVGGLVQAGGSLRLSCAASGSIFYGYAMGWYRQAAGKEREFVAAITFSATSTYYADSVKGRFTISRDNAKNTVYLQMNSLKPEVTAVYYCNASHVSHYRARDYWGQGTQVTVSS”, the “polyreactivity (PSR sort gate)” value was “low polyreactivity”.
With “QVQLVESVGGLVQAGGSLRLSCAASGSIIYHYPMGWYRHAPGKEAELVAAIYTTAGDTYYADSVKGRFTISRDNAKNTVYLQMNCLKPEDTAVYYCNASSSYFYYVRYDHWGQGTQVTVSS” the “polyreactivity (PSR sort gate)” value was “low polyreactivity”.
In the case of “QVQLVESVGGLVQAGGSLRLSCAASGSILQHYAMGWYRQAPGKETELVASISWTGGSTYYADSVKGRFTISRDNAKNTVYLQMNCLKPEDTAVYYCAARRYRYYSRGSWGQGTQVTVSS”, the “polyreactivity (PSR sort gate)” value is reported as “high polyreactivity”.
In the case of “QVQLVESVGGLVQAGGSLRLSCAASGSISIRNAMGWYRQAPGKERELVAAITYSGGSTYYADSVKGRFTISRDNAKNTVYLQMNSLKPEDTAVYYCNKDTYLATYLYDYWGQGTQVTVSS”, the “polyreactivity (PSR sort gate)” value is reported as “low polyreactivity”.
In the case of “QVQLVESVGGLVQAGGSLRLSCAASGSNFKYYAMGWYRQAPGKERELVAAITIGGNTNYADSVKGRFTISRDNAKNTVYLQMNSLKPEDTAVYYCATGGYYSAIVYGGYDYWGQGTQVTVSS”, the “polyreactivity (PSR sort gate)” value is reported as “low polyreactivity”.
For “QVQLVESVGGLVQAGGSLRLSCAASGSTFALNAMGWYRQAPGKERELVAAISYSGGSTYYADSVKGRFTISRDNAKNTVYLQINSLKPDDTAVYYCNAEVYFSGWVLYYYWGQGTQVTVSS”, the “polyreactivity (PSR sort gate)” value was “high polyreactivity”.
For “QVQLVESVGGLVQAGGSLRLSCAASGSTFGHNAMGWYRQAPGKERELVAVITSGGSTYYADSVKGRFTISRDNAKNTVYLQMNSLKPEDTAVYYCAKRYWSRGSKSSPYAYDYWGQGTQVTVSS”, the “polyreactivity (PSR sort gate)” value was “high polyreactivity”.
For “QVQLVESVGGLVQAGGSLRLSCAASGSTFLRYAMGWYRQAPGKERELVAAITASGGSTYYADSVKGRFTISRDNAKKSVYLQMNSLKPEDTAVYYCAADGRYIGKNSHDLWIYGYYYWGQGTQVTVSS”, the “polyreactivity (PSR sort gate)” value was “low polyreactivity”.
With “QVQLVESVGGLVQAGGSLRLSCAASGSTFSSYAMGWYRTAPGKERELVAALTASGGSTYYADSVKGRFTISRDNAKNTVYLQMNSLKPEDTAVYYCAAADVIFWLYYYWVQGTQVTVSS” the “polyreactivity (PSR sort gate)” value was “low polyreactivity”.
In the case of “QVQLVESVGGLVQAGGSLRLSCAASGSTFVIYAMGWYRQAHGKERELVAAISGRTGSTYYADSVKGRFTISRDNAKNTVYLQMNSLKPEDTAVYYCAAYKRSGLKYGHWGQGTQVTVSS”, the “polyreactivity (PSR sort gate)” value is reported as “high polyreactivity”.
